Data from patent publication US20080045454A1 (TRUSTEES OF COLUMBIA UNIVERSITY IN THE CITY OF NEW YORK, published 2008).

B1: TRIMStop expressed in fusion with the B42 activation domain (other, not shown: large carriers)
chain: MASRILVNIKEEVTCPICLELLTEPLSLDCGHSFCQACITANHKKSMPHQGERSCPLCRISYSSENLRPNRHLVNIVERLREVMLSPEEGQKVDHCAHHGEKLVLFCQQDGNVICWLCERSQEHRGHQTFLVEEVAQKYREKLQVALEMMRQKQKDAEKLEADVREEQASWKIQIQNDKTNIMAEFKKRRDILDCEESKELQNLEKEEKNILKRLVQSENDMVLQTQSVRVLISDLEHRLQGSVMELLQGVDGVIKRIEKVTLQNPKTFLNEKRRIFQTPDLKGTLQVFKEPTEVQRYWDAAAWDLVASA
notes: also called B42-TRIMStop
B2: 3× FLAG N-terminal-tagged TRIMStop (other)
chain: B1 chain
notes: also called FLAG-TRIMStop; not shown: 3x FLAG tag of p3xFLAG.CMV (SIGMA)

Columns and labels:
TRIMCyp fused to lexA = target: T1, TRIMCyp fused to lexA (owl monkey (Aotus trivirgatus)); assay: yeast two-hybrid, β-galactosidase reporter
T1 construct: Yeast two-hybrid bait; also called LexA-TRIMCyp; not shown: LexA, fusion partner of the yeast two-hybrid system

TRIMStop fused to lexA = target: T2, TRIMStop fused to lexA (owl monkey (Aotus trivirgatus)); assay: yeast two-hybrid, β-galactosidase reporter
T2 construct: Yeast two-hybrid bait; also called LexA-TRIMStop; not shown: LexA, fusion partner of the yeast two-hybrid system
T2 chain: B1 chain

[1] = target: T3, GST-TRIM5αhu (glutathione S-transferase fusion with full-length human TRIM5α) (human, UniProt Q9C035 2-493); assay: immunofluorescence colocalization in cotransfected TE671 cells
T3 construct: mature; Produced in 293T cells; also called GST-T5α; not shown: glutathione S-transferase (GST)
T3 sequence (Q9C035 2-493): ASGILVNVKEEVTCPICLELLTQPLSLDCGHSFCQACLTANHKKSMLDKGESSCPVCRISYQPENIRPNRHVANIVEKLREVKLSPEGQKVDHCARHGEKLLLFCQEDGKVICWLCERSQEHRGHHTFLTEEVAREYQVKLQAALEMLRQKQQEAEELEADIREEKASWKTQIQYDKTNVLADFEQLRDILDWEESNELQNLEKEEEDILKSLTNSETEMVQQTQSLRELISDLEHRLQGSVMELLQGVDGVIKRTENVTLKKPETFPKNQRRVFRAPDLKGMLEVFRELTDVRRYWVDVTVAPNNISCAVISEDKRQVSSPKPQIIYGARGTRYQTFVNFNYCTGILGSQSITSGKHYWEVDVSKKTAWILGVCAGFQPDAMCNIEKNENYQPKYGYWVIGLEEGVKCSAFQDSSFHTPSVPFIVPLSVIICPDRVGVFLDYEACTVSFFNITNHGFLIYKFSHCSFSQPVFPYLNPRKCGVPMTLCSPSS

Row | Binder | binding result (TRIMCyp fused to lexA) | binding result (TRIMStop fused to lexA) | binding result [1]
1 | B1 | binds | binds | –
2 | B2 | – | – | binds
